In publication PMC7485968 (2020):

T1: His-tagged ERG (Homo sapiens (Human), UniProt P11308)
T1 chain: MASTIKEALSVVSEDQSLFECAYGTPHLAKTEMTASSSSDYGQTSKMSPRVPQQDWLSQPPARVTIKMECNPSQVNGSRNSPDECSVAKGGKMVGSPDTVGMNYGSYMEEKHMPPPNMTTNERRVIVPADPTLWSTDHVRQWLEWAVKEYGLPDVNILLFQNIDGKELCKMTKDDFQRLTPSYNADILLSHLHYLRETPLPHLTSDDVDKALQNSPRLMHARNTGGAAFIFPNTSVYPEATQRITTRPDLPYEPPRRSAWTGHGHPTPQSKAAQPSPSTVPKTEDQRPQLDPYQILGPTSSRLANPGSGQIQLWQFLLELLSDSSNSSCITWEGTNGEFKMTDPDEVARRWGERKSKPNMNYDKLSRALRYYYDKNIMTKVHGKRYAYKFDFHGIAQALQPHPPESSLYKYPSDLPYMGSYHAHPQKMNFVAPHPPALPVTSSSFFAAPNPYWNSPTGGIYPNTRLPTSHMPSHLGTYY

B1: FLAG-GST-EWS 459-656aa (protein)
chain: PPREGRGMPPPLRGGPGGPGGPGGPMGRMGGRGGDRGGFPPRGPRGSRGNPSGGGNVQHRAGDWQCPNPGCGNQNFAWRTECNQCKAPKPEGFLPPPFPPPGGDRGRGGPGGMRGGRGGLMDRGGPGGMFRGGRGGDRGGFRGGRGMDRGGFGGGRRGGPGGPPGPLMEQMGGRRGGRGGPGKMDKGEHRQERRDRPY
B2: FLAG-GST-EWS 1-355aa (protein)
chain: MASTDYSTYSQAAAQQGYSAYTAQPTQGYAQTTQAYGQQSYGTYGQPTDVSYTQAQTTATYGQTAYATSYGQPPTGYTTPTAPQAYSQPVQGYGTGAYDTTTATVTTTQASYAAQSAYGTQPAYPAYGQQPAATAPTRPQDGNKPTETSQPQSSTGGYNQPSLGYGQSNYSYPQVPGSYPMQPVTAPPSYPPTSYSSTQPTSYDQSSYSQQNTYGQPSSYGQQSSYGQQSSYGQQPPTSYPPQTGSYSQAPSQYSQQSSSYGQQSSFRQDHPSSMGVYGQESGGFSGPGENRSMSGPDNRGRGRGGFDRGGMSRGGRGGGRGGMGSAGERGGFNKPGGPMDEGPDLDLGPPVDPD

How the values were obtained:
His-tagged ERG [1] = target: T1, His-tagged ERG; test: His-tag pull-down
His-tagged ERG [2] = target: T1, His-tagged ERG; test: His-tag pull-down; AlphaScreen

binding result (His-tagged ERG [1]) | binding result (His-tagged ERG [2]) | Binder
no binding |  | B1
 | binds | B2
